Our source for the mean fluorescence of GUVs + caspase-8 + Bid (0 min) values is PMC3572128.

The experiment deals with caspase-8 (P10 and P18 subunits reconstituted in their active form). Nature of the experiment: flow cytometry of giant unilamellar vesicles; CL-containing GUVs in PBS; caspase-8 290 nM bound to the vesicles, fluorescent Bid added at 10 to 100 nM; vesicle fluorescence recorded online. For orientation: In flow cytometry, cells or beads pass a laser one at a time.

B1: full-length Bid (C15S, C28S), fluorescently labelled (natural protein)
chain: MDCEVNNGSSLRDESITNLLVFGFLQSSSDNSFRRELDALGHELPVLAPQWEGYDELQTDGNRSSHSRLGRIEADSESQEDIIRNIARHLAQVGDSMDRSIPPGLVNGLALQLRNTSRSEEDRNRDLATALEQLLQAYPRDMEKEKTMLVLALLLAKKVASHTPSLLRDVFHTTVNFINQNLRTYVRSLARNGMD
modifications: Bodipy488 or Alexa647 maleimide labelling (legends and results also say Alexa488)
B1: the mean fluorescence of GUVs + caspase-8 + Bid (0 min) was 84 a.u.
